From patent US20050069569A1
Like-named read-outs stand apart in the source and are kept apart here.

Key:
PTHrP107-139 (human) [1] = tested on: T1, PTHrP107-139 (human)
T1 sequence: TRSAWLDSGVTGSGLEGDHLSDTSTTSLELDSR

[2] = target: secPHEX (soluble, secreted form of recombinant human PHEX) (human) (UniProt P78562); test: cell-based or functional assay
PTHrP107-139 (human) [3] = target: T2, PTHrP107-139 (human)
T2 chain: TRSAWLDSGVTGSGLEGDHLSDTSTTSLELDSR

secPHEX (soluble, secreted form of recombinant human PHEX)
degradation of PTHrP107-139 (HPLC) (PTHrP107-139 (human) [1]): approximately 75 to 80% degradation of the peptide was observed

osteocalcin (human, extracted from bones, with Gla residues) (from UniProt P02818 52-100)
50% inhibition of secPHEX-mediated PTHrP107-139 hydrolysis (HPLC) [2]: 3.6 µM | inhibition of secPHEX activity at 5×10^-6 M osteocalcin [2]: 75%

B1: secPHEXE581V (inactive soluble human PHEX with Glu 581 replaced by Val) (protein)
chain: QGLLSLQAKQEYCLKPECIEAAAAILSKVNLSVDPCDNFFRFACDGWISNNPIPEDMPSYGVYPWLRHNVDLKLKELLEKSISRRRDTEAIQKAKILYSSCMNEKAIEKADAKPLLHILRHSPFRWPVLESNIGPEGVWSERKFSLLQTLATFRGQYSNSVFIRLYVSPDDKASNEHILKLDQATLSLAVREDYLDNSTEAKSYRDALYKFMVDTAVLLGANSSRAEHDMKSVLRLEIKIAEIMIPHENRTSEAMYNKMNISELSAMIPQFDWLGYIKKVIDTRLYPHLKDISPSENVVVRVPQYFKDLFRILGSERKKTIANYLVWRMVYSRIPNLSRRFQYRWLEFSRVIQGTTTLLPQWDKCVNFIESALPYVVGKMFVDVYFQEDKKEMMEELVEGVRWAFIDMLEKENEWMDAGTKRKAKEKARAVLAKVGYPEFIMNDTHVNEDLKAIKFSEADYFGNVLQTRKYLAQSDFFWLRKAVPKTEWFTNPTTVNAFYSASTNQIRFPAGELQKPFFWGTEYPRSLSYGAIGVIVGHVFTHGFDNNGRKYDKNGNLDPWWSTESEEKFKEKTKCMINQYSNYYWKKAGLNVKGKRTLG
degradation of PTHrP107-139 (HPLC) (PTHrP107-139 (human) [3]): purified secPHEXE581V failed to degrade PTHrP107-139 under similar conditions
